Experimental data taken from PMC6550519, “Regulatory Mechanism of Nicotine Degradation in Pseudomonas putida” (mBio, 2019).

Assays:
NicR2 = assay: ITC, […] HSP titrated into […] purified free NicR2; supported by EMSA; assay type: binding, Pseudomonas putida
[1] = tested on: NicR2 (Pseudomonas putida S16); assay: ITC; details: EMSA: 10 mM Tris-HCl, 100 mM NaCl, 27 nM DNA, 180 nM NicR2, 30 min room temperature, 9% native PAGE; ITC: PBS, 64 uM NicR2 in cell, 100 uM DNA titrant …

| Compound | Kd (NicR2) [µM] | Kd [1] [nM] |
| --- | --- | --- |
| O=C(O)CCC(=O)c1ccc(O)nc1 [HSP, 6-hydroxy-3-succinoyl-pyridine] | 4.95 ± 0.48 | – |
| CACTAATTATACCGTCGTACATAGAATAAA (double strand) [R-m3 30 bp] | – | 1800 |
| CACTAATTATACCGTCGTACATATAATAAA (double strand) [wild type 30 bp (Pspm inverted repeat)] | – | 180 |
| CACTAATTATACCGTCGTACATATCCTAAA (double strand) [R-m12 30 bp] | – | 140 |
| CACTAATTATACCGTCGTACATCTAATAAA (double strand) [R-m4 30 bp] | – | 570 |
